These results are taken from US20050002950.

Series [1] addresses purified complement component C3.
Series [2] has as its target purified human fibronectin, P02751.
Series [3] has as its target T1, purified human fibrinogen, depleted of fibronectin and plasminogen, P02671.
T1 chain 1: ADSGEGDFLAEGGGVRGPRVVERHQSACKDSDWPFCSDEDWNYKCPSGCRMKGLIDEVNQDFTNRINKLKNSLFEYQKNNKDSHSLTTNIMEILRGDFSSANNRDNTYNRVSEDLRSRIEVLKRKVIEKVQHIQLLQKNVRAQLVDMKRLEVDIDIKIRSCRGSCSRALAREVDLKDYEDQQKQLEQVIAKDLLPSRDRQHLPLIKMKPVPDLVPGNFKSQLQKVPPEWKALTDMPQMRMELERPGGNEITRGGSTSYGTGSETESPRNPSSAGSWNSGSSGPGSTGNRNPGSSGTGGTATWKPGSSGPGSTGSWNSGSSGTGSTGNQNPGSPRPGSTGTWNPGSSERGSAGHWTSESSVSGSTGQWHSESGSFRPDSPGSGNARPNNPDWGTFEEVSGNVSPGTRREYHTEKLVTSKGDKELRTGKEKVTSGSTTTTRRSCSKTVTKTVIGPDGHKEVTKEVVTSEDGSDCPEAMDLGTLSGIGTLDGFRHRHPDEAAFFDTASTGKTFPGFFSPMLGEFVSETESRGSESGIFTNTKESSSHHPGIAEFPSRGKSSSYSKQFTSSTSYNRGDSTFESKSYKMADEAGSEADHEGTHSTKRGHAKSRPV
T1 chain 2: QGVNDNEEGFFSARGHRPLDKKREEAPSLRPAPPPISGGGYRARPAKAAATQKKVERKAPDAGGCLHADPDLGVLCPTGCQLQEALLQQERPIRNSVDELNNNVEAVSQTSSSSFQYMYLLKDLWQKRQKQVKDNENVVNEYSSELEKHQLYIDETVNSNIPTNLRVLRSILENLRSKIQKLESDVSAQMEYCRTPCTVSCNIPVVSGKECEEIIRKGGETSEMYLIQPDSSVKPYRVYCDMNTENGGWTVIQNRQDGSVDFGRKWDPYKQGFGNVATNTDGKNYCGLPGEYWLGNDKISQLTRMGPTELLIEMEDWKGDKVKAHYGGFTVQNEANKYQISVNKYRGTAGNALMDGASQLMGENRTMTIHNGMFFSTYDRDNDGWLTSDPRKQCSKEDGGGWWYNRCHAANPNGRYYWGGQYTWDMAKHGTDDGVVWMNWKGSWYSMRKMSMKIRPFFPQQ
T1 chain 3: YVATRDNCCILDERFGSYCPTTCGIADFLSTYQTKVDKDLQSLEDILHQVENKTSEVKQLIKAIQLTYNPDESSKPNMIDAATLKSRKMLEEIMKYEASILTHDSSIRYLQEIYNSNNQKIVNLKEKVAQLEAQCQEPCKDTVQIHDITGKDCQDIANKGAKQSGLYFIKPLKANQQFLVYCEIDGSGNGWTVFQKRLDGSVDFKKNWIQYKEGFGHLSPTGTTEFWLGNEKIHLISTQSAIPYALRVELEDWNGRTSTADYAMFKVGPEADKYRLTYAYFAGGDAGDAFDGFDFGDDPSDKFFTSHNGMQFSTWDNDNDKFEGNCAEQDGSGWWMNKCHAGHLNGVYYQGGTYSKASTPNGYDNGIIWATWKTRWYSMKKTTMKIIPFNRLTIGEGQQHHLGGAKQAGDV

In series [4] the target is T2, recombinant human C5a, P01031.
T2 chain: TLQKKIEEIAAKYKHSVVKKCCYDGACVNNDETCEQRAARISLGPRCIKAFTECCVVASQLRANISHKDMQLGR

Sequence of purified human fibronectin, P02751 (P02751 other isoform, or with tags, fused parts or gaps): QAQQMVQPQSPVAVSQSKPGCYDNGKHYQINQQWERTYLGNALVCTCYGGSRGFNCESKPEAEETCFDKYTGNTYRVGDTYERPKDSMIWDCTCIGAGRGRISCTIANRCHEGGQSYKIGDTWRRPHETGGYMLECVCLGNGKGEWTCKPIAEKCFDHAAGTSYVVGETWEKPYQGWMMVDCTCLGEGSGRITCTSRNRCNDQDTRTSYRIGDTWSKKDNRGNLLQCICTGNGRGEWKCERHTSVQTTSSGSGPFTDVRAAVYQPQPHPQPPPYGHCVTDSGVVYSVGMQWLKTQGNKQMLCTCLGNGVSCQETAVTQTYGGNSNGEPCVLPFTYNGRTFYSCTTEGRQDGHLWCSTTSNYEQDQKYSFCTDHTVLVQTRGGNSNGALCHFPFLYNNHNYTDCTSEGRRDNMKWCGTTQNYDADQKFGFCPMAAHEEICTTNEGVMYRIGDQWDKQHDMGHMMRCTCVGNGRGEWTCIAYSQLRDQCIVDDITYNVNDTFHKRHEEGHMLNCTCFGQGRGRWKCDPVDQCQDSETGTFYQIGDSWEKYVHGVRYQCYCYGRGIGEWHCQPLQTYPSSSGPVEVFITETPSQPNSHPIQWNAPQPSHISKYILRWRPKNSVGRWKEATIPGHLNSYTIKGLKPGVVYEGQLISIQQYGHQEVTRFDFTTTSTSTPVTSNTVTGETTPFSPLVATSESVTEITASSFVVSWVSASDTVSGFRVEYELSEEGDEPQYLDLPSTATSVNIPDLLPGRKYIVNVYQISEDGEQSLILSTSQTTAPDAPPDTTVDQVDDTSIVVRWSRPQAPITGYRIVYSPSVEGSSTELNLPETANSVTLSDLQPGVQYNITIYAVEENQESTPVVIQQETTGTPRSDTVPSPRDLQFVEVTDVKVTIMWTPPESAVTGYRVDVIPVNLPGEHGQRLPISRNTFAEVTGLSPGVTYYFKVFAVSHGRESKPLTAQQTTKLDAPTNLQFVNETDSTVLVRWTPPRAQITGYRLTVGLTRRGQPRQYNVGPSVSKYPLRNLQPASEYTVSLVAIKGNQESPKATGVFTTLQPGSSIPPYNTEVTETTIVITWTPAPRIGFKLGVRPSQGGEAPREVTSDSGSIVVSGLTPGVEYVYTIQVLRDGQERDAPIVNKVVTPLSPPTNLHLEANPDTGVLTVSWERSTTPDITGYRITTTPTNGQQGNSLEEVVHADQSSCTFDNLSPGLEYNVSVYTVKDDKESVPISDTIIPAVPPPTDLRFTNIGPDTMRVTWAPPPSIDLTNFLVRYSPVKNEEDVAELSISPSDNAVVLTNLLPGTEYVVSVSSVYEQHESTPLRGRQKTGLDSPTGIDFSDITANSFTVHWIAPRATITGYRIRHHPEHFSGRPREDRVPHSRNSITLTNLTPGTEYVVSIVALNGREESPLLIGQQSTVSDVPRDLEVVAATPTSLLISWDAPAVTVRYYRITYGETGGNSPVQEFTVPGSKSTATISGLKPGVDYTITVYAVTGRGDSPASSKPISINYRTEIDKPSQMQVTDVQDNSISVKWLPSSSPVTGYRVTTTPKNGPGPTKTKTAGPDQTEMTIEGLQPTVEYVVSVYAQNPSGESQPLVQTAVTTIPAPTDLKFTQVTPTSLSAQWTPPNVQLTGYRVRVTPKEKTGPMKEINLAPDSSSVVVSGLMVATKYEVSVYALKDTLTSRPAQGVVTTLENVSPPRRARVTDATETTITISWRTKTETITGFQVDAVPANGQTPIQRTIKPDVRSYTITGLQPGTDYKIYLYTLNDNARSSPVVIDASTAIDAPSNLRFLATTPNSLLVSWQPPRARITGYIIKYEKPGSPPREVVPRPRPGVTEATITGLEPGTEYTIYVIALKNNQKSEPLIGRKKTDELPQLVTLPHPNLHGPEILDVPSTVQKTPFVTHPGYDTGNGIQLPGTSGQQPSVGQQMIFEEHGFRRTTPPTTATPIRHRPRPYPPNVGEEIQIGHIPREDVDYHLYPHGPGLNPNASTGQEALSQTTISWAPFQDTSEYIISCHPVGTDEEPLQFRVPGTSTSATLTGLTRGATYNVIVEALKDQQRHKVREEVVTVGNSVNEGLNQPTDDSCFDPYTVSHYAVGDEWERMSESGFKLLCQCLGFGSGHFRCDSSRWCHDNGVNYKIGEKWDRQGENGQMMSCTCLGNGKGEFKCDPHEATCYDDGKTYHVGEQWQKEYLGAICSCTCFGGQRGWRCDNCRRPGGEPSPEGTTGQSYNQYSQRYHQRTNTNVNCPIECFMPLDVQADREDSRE

B1: CspA on whole cells of GBS strain COH1 (compared with the cspA mutant TOH121) (protein)
chain: DSVINKPSDIAVEQQVKDSPTSIANETPTNNTSSALASTAQDNLVTKANNNSPTETQPVTEPHSQATETFSPAANQPVESTQEVSKTPLTKQNLAVKPTPAISKETPQNIDSNKIITVPKVWNTGYKGEGTVVAIIDSGLDTNHDALQLNDSTKAKYQNEQQMNAAKAKAGINYGKWYNNKVIFGHNYVDVNTELKEVKSTSHGMHVTSIATANPSKKDTNELIYGVAPEAQVMFMRVFSDEKRGTGPALYVKAIEDAVKLGADSINLSLGGANGSLVNADDRLIKALEMARLAGVSVVIAAGNDGTFGSGASKPSALYPDYGLVGSPSTAREAISVASYNNTTLVNKVFNIIGLENNKNLNNGLAAYADPKVSDKTFEVGKQYDYVFVGKGNDNDYKDKTLNGKIALIERGDITFTKKVVNAINHGAVGAIIFNNKAGEANLTMSLDPEASAIPAIFTQKEFGDVLAKNNYKIVFNNIKNKQANPNAGVLSDFSSWGLTADGQLKPDLSAPGGSIYAAINDNEYDMMSGTSMASPHVAGATALVKQYLLKEHPELKKGDIERTVKYLLMSTAKAHLNKDTGAYTSPRQQGAGIIDVAAAVQTGLYLTGGENNYGSVTLGNIKDKISFDVTVHNINKVAKDLHYTTYLNTDQVKDGFVTLAPQQLGTFTGKTIRIEPGQTKTITIDIDVSKYHDMLKKVMPNGYFLEGYVRFTDPVDGGEVLSIPYVGFKGEFQNLEVLEKSIYKLVANKEKGFYFQPKQTNEVPGSEDYTALMTTSSEPIYSTDGTSPIQLKALGSYKSIDGKWILQLEQKGQPHLAISPNDDQNQDAVALKGVFLRNFNNLRAKVYRADDVNLQKPLWVSAPQAGDKNYYSGNTENPKSTFLYDTEWKGTTTDGIPLEDGKYKYVLTYYSDVPGSKPQQMVFDITLDRQAPTLTTATYDKDRRIFKARPAVEHGESGIFREQVFYLKKDKDGHYNSVLRQKGEDGILVEDNKVFIKQEKDGSFILPKEVNDFSHVYYTVEDYAGNLVSAKLEDLINIGNKNGLVNVKVFSPELNSNVDIDFSYSVKDDKGNVIKKQHHGKDLNLLKLPFGTYTFDLFLYDEERANLISPQSVTVTISEKDSLKDVLFKVNLLKKAALLVEFDKLLPKGATVQLVTKTNTVVDLPKATYSPTDYGKNIPVGDYRLNVTLPSGYSTLENLDDLLVSVKEGQVNLTKLTLINKAPLINALAEQTDIISQPVFYNAGTHLKNNYLANLEKAQTLIKNRVEQTSIDNAIAALRESRQALNGKETDTSLLAKAILAETEIKGNYQFVNASPLSQSTYINQVQLAKNLLQKPNVTQSEVDKALENLDIAKNQLNGHETDYSGLHHMIIKANVLKQTSSKYQNASQFAKENYNNLIKKAELLLSNRQATQAQVEELLNQIKATEQELDGRDRVSSAENYSQSLNDNDSLNTTPINPPNQPQALIFKKGMTKESEVAQKRVLGVTSQTDNQKIKTNKLPKTGESTPKITYTILLFSLSMLGLATIKLKSIKRE
On to B1, for which the “degradation of the test substrate (Coomassie-stained SDS-PAGE or Western blotting)” value was “No difference in the cleavage of the test substrates was observed for all substrates except fibrinogen when the mutant and wild-type strains were compared” in series [1]; “No difference in the cleavage of the test substrates was observed for all substrates except fibrinogen when the mutant and wild-type strains were compared” in series [2]. Besides, in series [3], the “fibrinogen degradation assay (SDS-PAGE of supernatant after 16 h with whole GBS)” value is reported as “COH1 cleaved the minor species (corresponding to the lower band of the doublet) of the α subunit, while the mutant did not cleave fibrinogen under the conditions employed”. Moreover, in series [4], the “C5a protease activity (C5a-stimulated PMN adherence to gelatin-coated plastic after preincubating C5a with GBS)” value is “inactivation of CspA did not appear to have a detectable effect on C5a activity”.
